Assay results: the RNAGym collection of RNA variant scans (doi:10.1021/acssynbio.7b00057)

B1: Pistol ribozyme (parent)
chain: GGGUCGUUGUUCCAUAAUCGCGUGGAUAUGGCACGCAAGUUUCUACCGGGCACCGUAAAUGUCCGACUGGAGCCGUUCGGGCGGCUAUAAACAGACCUCAGGCCCGAAGCGUGGCGGCACCUGCCGCCGGUGGUAAAAAAGAUCGGAAGAGCACACGUCU

Variants of: B1
Test: aptazyme ON/OFF ratio, guanine; higher = stronger switching; co-transcriptional cleavage with and without guanine

Variant | aptazyme ON/OFF ratio
GGGUCGCUCCUAUAUAAUCGCGUGGAUAUGGCACGCAAGUUUCUACCGGGCACCGUAAAUGUCCGACUGGAGCCGUUCGGGCGGCUAUAAACAGACCUCAGGCCCGAAGCGUGGCGGCACCUGCCGCCGGUGGUAAAAAAGAUCGGAAGAGCACACGUCU [U7C G9C U10C C12A C13U] | 1.04
GGGUCGCUCCUAGAUAAUCGCGUGGAUAUGGCACGCAAGUUUCUACCGGGCACCGUAAAUGUCCGACUGGAGCCGUUCGGGCGGCUAUAAACAGACCUCAGGCCCGAAGCGUGGCGGCACCUGCCGCCGGUGGUAAAAAAGAUCGGAAGAGCACACGUCU [U7C G9C U10C C12A C13G] | 1.06
GGGUCGCUCCUAAAUAAUCGCGUGGAUAUGGCACGCAAGUUUCUACCGGGCACCGUAAAUGUCCGACUGGAGCCGUUCGGGCGGCUAUAAACAGACCUCAGGCCCGAAGCGUGGCGGCACCUGCCGCCGGUGGUAAAAAAGAUCGGAAGAGCACACGUCU [U7C G9C U10C C12A C13A] | 1.06
GGGUCGCUCCUUAAUAAUCGCGUGGAUAUGGCACGCAAGUUUCUACCGGGCACCGUAAAUGUCCGACUGGAGCCGUUCGGGCGGCUAUAAACAGACCUCAGGCCCGAAGCGUGGCGGCACCUGCCGCCGGUGGUAAAAAAGAUCGGAAGAGCACACGUCU [U7C G9C U10C C12U C13A] | 1.04
GGGUCGCUCCUUUAUAAUCGCGUGGAUAUGGCACGCAAGUUUCUACCGGGCACCGUAAAUGUCCGACUGGAGCCGUUCGGGCGGCUAUAAACAGACCUCAGGCCCGAAGCGUGGCGGCACCUGCCGCCGGUGGUAAAAAAGAUCGGAAGAGCACACGUCU [U7C G9C U10C C12U C13U] | 1.07
GGGUCGCUCCUUGAUAAUCGCGUGGAUAUGGCACGCAAGUUUCUACCGGGCACCGUAAAUGUCCGACUGGAGCCGUUCGGGCGGCUAUAAACAGACCUCAGGCCCGAAGCGUGGCGGCACCUGCCGCCGGUGGUAAAAAAGAUCGGAAGAGCACACGUCU [U7C G9C U10C C12U C13G] | 1.07
GGGUCGCUCCUCCAUAAUCGCGUGGAUAUGGCACGCAAGUUUCUACCGGGCACCGUAAAUGUCCGACUGGAGCCGUUCGGGCGGCUAUAAACAGACCUCAGGCCCGAAGCGUGGCGGCACCUGCCGCCGGUGGUAAAAAAGAUCGGAAGAGCACACGUCU [U7C G9C U10C] | 1.14
GGGUCGCUCCUCGAUAAUCGCGUGGAUAUGGCACGCAAGUUUCUACCGGGCACCGUAAAUGUCCGACUGGAGCCGUUCGGGCGGCUAUAAACAGACCUCAGGCCCGAAGCGUGGCGGCACCUGCCGCCGGUGGUAAAAAAGAUCGGAAGAGCACACGUCU [U7C G9C U10C C13G] | 1.04
GGGUCGCUCCUCUAUAAUCGCGUGGAUAUGGCACGCAAGUUUCUACCGGGCACCGUAAAUGUCCGACUGGAGCCGUUCGGGCGGCUAUAAACAGACCUCAGGCCCGAAGCGUGGCGGCACCUGCCGCCGGUGGUAAAAAAGAUCGGAAGAGCACACGUCU [U7C G9C U10C C13U] | 1.08
GGGUCGCUCCUCAAUAAUCGCGUGGAUAUGGCACGCAAGUUUCUACCGGGCACCGUAAAUGUCCGACUGGAGCCGUUCGGGCGGCUAUAAACAGACCUCAGGCCCGAAGCGUGGCGGCACCUGCCGCCGGUGGUAAAAAAGAUCGGAAGAGCACACGUCU [U7C G9C U10C C13A] | 1.04
GGGUCGCUCAGGUAUAAUCGCGUGGAUAUGGCACGCAAGUUUCUACCGGGCACCGUAAAUGUCCGACUGGAGCCGUUCGGGCGGCUAUAAACAGACCUCAGGCCCGAAGCGUGGCGGCACCUGCCGCCGGUGGUAAAAAAGAUCGGAAGAGCACACGUCU [U7C G9C U10A U11G C12G C13U] | 1.13
GGGUCGCUCAGGGAUAAUCGCGUGGAUAUGGCACGCAAGUUUCUACCGGGCACCGUAAAUGUCCGACUGGAGCCGUUCGGGCGGCUAUAAACAGACCUCAGGCCCGAAGCGUGGCGGCACCUGCCGCCGGUGGUAAAAAAGAUCGGAAGAGCACACGUCU [U7C G9C U10A U11G C12G C13G] | 1.09
GGGUCGCUCAGGAAUAAUCGCGUGGAUAUGGCACGCAAGUUUCUACCGGGCACCGUAAAUGUCCGACUGGAGCCGUUCGGGCGGCUAUAAACAGACCUCAGGCCCGAAGCGUGGCGGCACCUGCCGCCGGUGGUAAAAAAGAUCGGAAGAGCACACGUCU [U7C G9C U10A U11G C12G C13A] | 1.1
GGGUCGCUCAGAUAUAAUCGCGUGGAUAUGGCACGCAAGUUUCUACCGGGCACCGUAAAUGUCCGACUGGAGCCGUUCGGGCGGCUAUAAACAGACCUCAGGCCCGAAGCGUGGCGGCACCUGCCGCCGGUGGUAAAAAAGAUCGGAAGAGCACACGUCU [U7C G9C U10A U11G C12A C13U] | 1.06
GGGUCGCUCAGAAAUAAUCGCGUGGAUAUGGCACGCAAGUUUCUACCGGGCACCGUAAAUGUCCGACUGGAGCCGUUCGGGCGGCUAUAAACAGACCUCAGGCCCGAAGCGUGGCGGCACCUGCCGCCGGUGGUAAAAAAGAUCGGAAGAGCACACGUCU [U7C G9C U10A U11G C12A C13A] | 1.15
GGGUCGCUCAGAGAUAAUCGCGUGGAUAUGGCACGCAAGUUUCUACCGGGCACCGUAAAUGUCCGACUGGAGCCGUUCGGGCGGCUAUAAACAGACCUCAGGCCCGAAGCGUGGCGGCACCUGCCGCCGGUGGUAAAAAAGAUCGGAAGAGCACACGUCU [U7C G9C U10A U11G C12A C13G] | 1.03
GGGUCGCUCAGUGAUAAUCGCGUGGAUAUGGCACGCAAGUUUCUACCGGGCACCGUAAAUGUCCGACUGGAGCCGUUCGGGCGGCUAUAAACAGACCUCAGGCCCGAAGCGUGGCGGCACCUGCCGCCGGUGGUAAAAAAGAUCGGAAGAGCACACGUCU [U7C G9C U10A U11G C12U C13G] | 1.08
GGGUCGCUCAGUUAUAAUCGCGUGGAUAUGGCACGCAAGUUUCUACCGGGCACCGUAAAUGUCCGACUGGAGCCGUUCGGGCGGCUAUAAACAGACCUCAGGCCCGAAGCGUGGCGGCACCUGCCGCCGGUGGUAAAAAAGAUCGGAAGAGCACACGUCU [U7C G9C U10A U11G C12U C13U] | 1.13
